Reference: article PMC5892705 (Science signaling, 2017)

What was measured:
[1] = target: murine vasopressin V2 receptor (mouse, UniProt O88721 1-371); test: radioligand binding
human oxytocin receptor = target: T1, human oxytocin receptor (human, UniProt P30559 1-389); test: cell-based or functional assay
T1 sequence: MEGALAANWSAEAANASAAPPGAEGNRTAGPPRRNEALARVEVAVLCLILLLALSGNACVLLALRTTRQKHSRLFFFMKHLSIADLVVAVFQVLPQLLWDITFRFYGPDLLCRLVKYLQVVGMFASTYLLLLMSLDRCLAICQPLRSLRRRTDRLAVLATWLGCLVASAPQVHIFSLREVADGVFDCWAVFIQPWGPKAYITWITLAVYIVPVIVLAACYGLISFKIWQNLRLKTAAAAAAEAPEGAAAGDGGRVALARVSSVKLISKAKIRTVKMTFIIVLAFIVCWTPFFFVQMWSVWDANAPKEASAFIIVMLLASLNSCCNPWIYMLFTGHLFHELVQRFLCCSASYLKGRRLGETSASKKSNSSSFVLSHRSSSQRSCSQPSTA

[2] = target: human vasopressin V1a receptor (human, UniProt P37288 1-418); test: cell-based or functional assay
murine oxytocin receptor = target: T2, murine oxytocin receptor (mouse, UniProt P97926 1-388); test: cell-based or functional assay
T2 sequence: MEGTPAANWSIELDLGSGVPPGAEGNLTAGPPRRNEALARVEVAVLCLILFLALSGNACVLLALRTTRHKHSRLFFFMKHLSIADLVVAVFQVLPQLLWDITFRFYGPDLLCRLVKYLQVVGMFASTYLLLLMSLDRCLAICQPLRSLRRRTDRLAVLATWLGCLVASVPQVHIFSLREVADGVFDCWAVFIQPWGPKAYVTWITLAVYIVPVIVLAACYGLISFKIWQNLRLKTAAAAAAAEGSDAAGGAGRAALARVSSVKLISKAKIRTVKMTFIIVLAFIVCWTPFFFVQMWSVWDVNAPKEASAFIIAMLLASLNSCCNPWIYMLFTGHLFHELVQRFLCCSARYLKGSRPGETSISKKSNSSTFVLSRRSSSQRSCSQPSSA

murine vasopressin V2 receptor, sequence (O88721 whole entry): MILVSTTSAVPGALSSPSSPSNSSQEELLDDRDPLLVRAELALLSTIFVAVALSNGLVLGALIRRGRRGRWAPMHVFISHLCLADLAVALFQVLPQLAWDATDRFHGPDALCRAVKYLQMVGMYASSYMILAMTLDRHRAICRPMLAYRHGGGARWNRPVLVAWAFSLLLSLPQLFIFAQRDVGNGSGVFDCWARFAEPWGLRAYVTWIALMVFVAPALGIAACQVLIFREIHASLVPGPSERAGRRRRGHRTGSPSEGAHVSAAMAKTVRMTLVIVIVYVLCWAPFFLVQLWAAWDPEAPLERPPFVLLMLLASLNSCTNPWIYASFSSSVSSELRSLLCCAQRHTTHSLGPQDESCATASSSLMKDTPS
human vasopressin V1a receptor, sequence (P37288 whole entry): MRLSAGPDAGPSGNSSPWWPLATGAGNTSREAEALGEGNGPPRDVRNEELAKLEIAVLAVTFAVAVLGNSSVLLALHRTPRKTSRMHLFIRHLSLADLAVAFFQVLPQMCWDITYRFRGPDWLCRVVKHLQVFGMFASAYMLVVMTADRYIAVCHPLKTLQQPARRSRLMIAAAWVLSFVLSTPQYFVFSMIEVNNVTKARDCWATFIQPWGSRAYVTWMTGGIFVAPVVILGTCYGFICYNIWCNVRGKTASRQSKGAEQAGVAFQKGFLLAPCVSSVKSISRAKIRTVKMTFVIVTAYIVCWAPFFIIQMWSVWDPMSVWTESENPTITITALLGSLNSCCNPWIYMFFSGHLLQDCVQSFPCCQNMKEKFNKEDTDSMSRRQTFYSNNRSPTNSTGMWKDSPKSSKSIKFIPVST

Ki1 (bi-phasic binding curve) [1]: 0.71 nM
HTRF IP1 accumulation in transfected COS-1 cells, EC50 (human oxytocin receptor): 38 nM
tissue bath, contraction amplitude of strips of pregnant human myometrium, EC50 (human oxytocin receptor): 5.89 nM
FLIPR Ca2+ mobilization, EC50 [2]: > 10000 nM
HTRF IP1 accumulation in transfected HEK293 cells, Emax (murine oxytocin receptor): 43%
B1: [Se-Se]-OT-OH (peptide)
chain: UYIQNUPLG
modifications: selenocysteine at positions 1 and 6, joined by a diselenide bond; C-terminal acid instead of the amide
